Here are results for one molecule from patent US20230348607A1 (EXELIXIS, published 2023).

The target of one assay is T1, human AMHR-II-ECD-Fc (human, UniProt Q16671 18-149).
T1 construct: Bought reagent (R&D Systems); Only its extracellular domain stood in the assay; also called extracellular domain of human AMHR-II receptor; not shown: Fc part of the bought fusion protein (R&D Systems)
As to the kind of experiment: ELISA, coated human AMHR-II-ECD-Fc, detection with HRP anti-human F(ab')2. The method, then:
(§1) The binding capacity of the anti-AMHR-II 4A3 antibody was evaluated by ELISA. ELISA plates (96 wells, Maxisorp, Nunc) were coated overnight at +4° C. with 100 ng per well of human AMHR-II-ECD-Fc, rat AMHR-II-ECD-Fc or human ALK3-ECD-Fc (R&D Systems).
(§2) Coated plates were blocked with PBS-BSA 2% for 1 hour at 37° C. and washed three times with PBS-Tween20 0.05%. The anti-AMHR-II 4A3 antibody was serially diluted in PBST-BSA1% and incubated for 1 hour at 37° C. The bound anti-AMHR-II 4A3 was detected by adding HRP-conjugated F(ab′)2 goat anti-human F(ab′)2 fragment specific (Interchim) diluted at 1:10000 and incubated for one hour at 37° C. Revelation was done with TMB (Sigma) and the reaction was stopped by adding H₂SO₄ 1N (v:v). Absorbances were measured at 450 nm and binding data curves were analysed using GraphPad Prism 8 software.
(In general: An ELISA detects its analyte on a solid surface through an enzyme-linked reagent.)

In assay [1] the target is T2, human AMHR-II receptor expressed at the surface of the COV434-AMHR-II transfected cell line (human, UniProt Q16671 18-573).
T2 sequence: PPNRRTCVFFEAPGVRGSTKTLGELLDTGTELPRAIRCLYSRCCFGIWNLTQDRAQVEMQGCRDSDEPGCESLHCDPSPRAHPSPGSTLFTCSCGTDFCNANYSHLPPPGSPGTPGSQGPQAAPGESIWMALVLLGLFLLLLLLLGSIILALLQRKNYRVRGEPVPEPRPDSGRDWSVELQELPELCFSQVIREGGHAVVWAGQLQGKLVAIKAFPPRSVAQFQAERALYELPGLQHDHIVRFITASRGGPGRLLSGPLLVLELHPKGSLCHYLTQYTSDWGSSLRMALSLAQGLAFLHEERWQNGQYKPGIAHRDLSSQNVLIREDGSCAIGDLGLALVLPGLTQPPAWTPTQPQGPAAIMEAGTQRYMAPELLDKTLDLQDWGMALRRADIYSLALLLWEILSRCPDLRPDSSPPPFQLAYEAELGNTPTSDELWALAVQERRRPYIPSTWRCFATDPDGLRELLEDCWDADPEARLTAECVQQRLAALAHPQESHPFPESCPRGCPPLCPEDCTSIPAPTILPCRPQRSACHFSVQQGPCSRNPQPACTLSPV
As to the kind of experiment: flow cytometry on COV434 AMHR-II transfected cells, 67 nM to 0.2 pM, one-site specific binding fit. The method, then: For Fluorescent-activated cell sorting (FACS) analysis, 3×10⁵ cells were incubated for 1 hour at 4° C. with 10 μg/ml of 4A3 antibody (FIG. 2A) or with a range of 4A3 concentrations (from 67 nM to 0.2 pM, FIG. 2B). After washes, Phycoerythrin-conjugated anti-human IgG antibody (1:200, Interchim) was added for 1 hour at 4° C. FACS analysis of the resuspended cells was done on a BD Accuri™ C6 flow cytometer (BD Bioscience). Binding affinity were determined using GraphPad Prism 8 with “one-site specific binding” fit equation.
(In general: In flow cytometry, cells or beads pass a laser one at a time.)

The next assay has as its target T3, human ALK3-ECD-Fc (human, UniProt P36894 24-152).
T3 construct: extracellular domain; Bought reagent (R&D Systems), used as negative control; also called human ALK3 receptor; negative control; not shown: Fc part of the bought fusion protein (R&D Systems)
Briefly: ELISA, 100 ng per well coated Fc fusion, serially diluted 4A3. The method, then:
as §1, §2

A further assay deals with T4, rat AMHR-II-ECD-Fc (rat, UniProt Q62893 18-144).
T4 construct: extracellular domain; Bought reagent (R&D Systems); also called rat AMHR-II receptor; not shown: Fc part of the bought fusion protein (R&D Systems)
T4 sequence (looked up): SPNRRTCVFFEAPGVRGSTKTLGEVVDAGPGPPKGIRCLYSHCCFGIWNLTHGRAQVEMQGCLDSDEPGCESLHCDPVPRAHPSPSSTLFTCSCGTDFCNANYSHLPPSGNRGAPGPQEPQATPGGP
The description is as above. The method, then:
as §1, §2

One may read the EC50 as the midpoint of the concentration-response curve. A low value points to greater potency. A word on the Kd: it is the concentration at which binding is half-saturated. Lower therefore signals higher affinity.

T3 sequence (P36894 24-152): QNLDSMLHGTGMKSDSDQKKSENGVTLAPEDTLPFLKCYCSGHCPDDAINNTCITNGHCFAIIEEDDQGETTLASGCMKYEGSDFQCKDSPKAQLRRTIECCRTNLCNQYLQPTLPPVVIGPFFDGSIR

B1: anti-AMHR-II 4A3 antibody (antibody, human IgG1, lambda, V domains shown)
VH: EVQLVESGGSLVKPGGSLRLSCAASGFTFSNNAMNWVRQAPGKGLEWISYISGSSRYISYADFVKGRFTISRDNAKNSLYLQMNSLRAEDTAVYYCVRSSDDYFGGGMDVWGRGTLVTVSS
VL: QSVLTQPASVSGSPGQSITISCAGTSSDVGGDNDVSWYQQHPGKAPKLMIYYDSYRPSGVSNRFSGSKSGNTASLTISGLQAEDEADYYCSSSTYYSTRVFGGGTKLTVLG
notes: The tie is therefore indirect; 4A3 was detected with anti-human F(ab')2 and anti-human IgG secondary reagents; also called antibody 4A3; 4A3 antagonist antibody
Regarding B1, the EC50 with human AMHR-II-ECD-Fc was determined as 6 nM. This molecule had a Kd in assay [1] of 2.1 nM. Moreover, the binding result with human ALK3-ECD-Fc and with rat AMHR-II-ECD-Fc was “no binding” throughout.
